According to the DeepSol protein solubility set:

Assay: soluble on expression in E. coli; label from the status in PepcDB or PDB records
In the case of “SSPSSPADWAKKLTDAVLRQKAGETLTAADRDFSNADFRNITFSKILPPSFMERDGDIIKGFNFSNSKFTYSDISHLHFDECRFTYSTLSDVVCSNTKFSNSDMNEVFLQYSITTQQQPSFIDTTLKNTLIRHKANLSGVILNEPDNSSPPSVSGGGNFIRLGDIWLQMPLLWTENAVDGFLNHEHNNGKSILMTIDSLPDKYSQEKVQAMEDLVKSLRGGRLTEACIRPVESSLVSVLAHPPYTQSALISEWLGPVQERFFAHQCQTYNDVPLPAPDTYYQQRILPVLLDSFDRNSAAMTTHSGLFNQVILHCMTGVDCTDGTRQKAAALYEQYLAHPAVSPHIHNGLFGNYDGSPDWTTRAADNFLLLSSQDSDTAMMLSTDTLLTMLNPTPDTAWDNFYLLRAGENVSTAQISPVELFRHDFPVFLAAFNQQATQRRFGELIDIILSTEEHGELNQQFLAATNQKHSTVKLIDDASVSRLATIFDPLLPEGKLSPAHYQHILSAYHLTDATPQKQAETLFCLSTAFARYSSSAIFGTEHDSPPALRGYAEALMQKAWELSPAIFPSSEQFTEWSDRFHGLHGAFTCTSVVADSMQRHARKYFPSVLSSILPLAWA”, the “soluble on expression in E. coli” value is reported as “soluble”.
For “MGSDKIHHHHHHMKHKIVEVKNVLACLELMENLQGRSSITPGIGLIHGPSGFGKTTTLCWLINQLGAMNAIYVRCYATDTPSSFLARIMEELGSEMLYPMRKSVDFIVDRMNERQLPLFIDEADHIVGQSKIMETIRDLYDATEQPVVLVGMEEIARRISHRKQLFNRVSEWVEFQPADLSDVHSFAAELLDDRITVADDLLEHIRKRSGGEVRRILTALEKIERSAIANDMDIVTLDNWGDQPLFLEFRR”, the “soluble on expression in E. coli” value was “not soluble”.
In the case of “MPDQISVSEFVAETLEDYKAPTASSFTRTAQCRNTAAAIEEDAVTYDDVHVNFTREEWNLLHPSQKSLYKDVMLETYWNLTVIGYTWENHHIERHCQSSRRNERFSLHCQLP”, the “soluble on expression in E. coli” value is reported as “not soluble”.
With “MNQDLSQTFLAITRNSTDLEWLQGALAPLGQVVGADGSLDELLALVDVTFANLVFVGLDREHVVAQAALIEGALEAKPMLAIVALGDGMDNQLVLNAMRAGARDFVAYGSRSSEVAGLVRRLSKRLPAVTPNTQLGGLTVLYGAQGDGDGALLASHLALVVQKSGQQTLLLDLGLPRGDSLALLGLESSFHFGDALRHLRRLDATLIDSAFTSAEAGLRILAYASHDAPLEHTSAAELYMLLSALRQHFQHIVVNLVGQPDSEALRTFVSHCDKLLWCTDQNVLDCRRNLAVLNHWREKGMKLEHARLLVDRYLRTVAPDSETLGKTFGLEVIAVLAYSPEVRLNAKNQGVTLFELAPREALTQSLRTLGERLAKRSQGLPKPKAGWLNRIMGGRLEHHHHHH” the “soluble on expression in E. coli” value was “not soluble”.
For “MANTGSLVLLRHGESDWNALNLFTGWVDVGLTDKGQAEAVRSGELIAEHDLLPDVLYTSLLRRAITTAHLALDSADRLWIPVRRSWRLNERHYGALQGLDKAETKARYGEEQFMAWRRSYDTPPPPIERGSQFSQDADPRYADIGGGPLTECLADVVARFLPYFTDVIVGDLRVGKTVLIVAHGNSLRALVKHLDQMSDDEIVGLNIPTGIPLRYDLDSAMRPLVRGGTYLDPEAAAAGAAAVAGQGRGGVPRGAAALEHHHHHH”, the “soluble on expression in E. coli” value was “soluble”.
For “GSSHHHHHHSSGRENLYFQGHMARPGMERWRDRLALVTGASGGIGAAVARALVQQGLKVVGCARTVGNIEELAAECKSAGYPGTLIPYRCDLSNEEDILSMFSAIRSQHSGVDICINNAGLARPDTLLSGSTSGWKDMFNVNVLALSICTREAYQSMKERNVDDGHIININSMSGHRVLPLSVTHFYSATKYAVTALTEGLRQELREAQTHIRATCISPGVVETQFAFKLHDKDPEKAAATYEQMKCLKPEDVAEAVIYVLSTPAHIQIGDIQMRPTGS”, the “soluble on expression in E. coli” value was “soluble”.
In the case of “MAYSEKVIDHYENPRNVGKLDAADPNVGTGMVGAPACGDVMRLQIKVNEQGVIEDAKFKTYGCGSAIASSSLATEWMKGKTLDEAETIKNTTIAEELALPPVKIHCSVLAEDAIKAAVRDYKQKKGLL”, the “soluble on expression in E. coli” value is reported as “not soluble”.
For “MGSDKIHHHHHHMSIKTSNTDFKTRIRQQIEDPIMRKAVANAQQRIGANRQKMVDELGHWEEWRDRAAQIRDHVLSNLDAYLYQLSEKVTQNGGHVYFARTKEDATRYILQVAQRKNARKVVKSKSMVTEEIGVNHVLQDAGIQVIETDLGEYILQLDQDPPSHVVVPAIHKDRHQIRRVLHERLGYEGPETPEAMTLFIRQKIREDFLSAEIGITGCNFAVAETGSVCLVTNEGNARMCTTLPKTHIAVMGMERIAPTFAEVDVLITMLARSAVGARLTGYNTWLTGPREAGHVDGPEEFHLVIVDNGRSEVLASEFRDVLRCIRCGACMNTCPAYRHIGGHGYGSIYPGPIGAVISPLLGGYKDFKDLPYACSLCTACDNVCPVRIPLSKLILRHRRVMAEKGITAKAEQRAIKMFAYANSHPGLWKVGMMAGAHAASWFINGGKTPLKFGAISDWMEARDLPEADGESFRSWFKKHQAQEKKNG”, the “soluble on expression in E. coli” value was “not soluble”.
With “MTEVVLHIYDVTNSGSEKTNNTIVQINRFFKDGIGLGGIFHSAIQVYGNDEWSYGYCELGTGVFSCPSGKNPMYTYREKIVLGKTDCTIFMVNQMLRELSREWPGHTYDLLSKNCNHFCDVLCDRLGVPKIPGWVNRFANAGDTALEVAGNTAMRMKQAKTELVSASKVAYRFLSNVTSNVTNGSNGSPQRPGTLNNSDSGNLRLQGSWLKGLLNTAKPSTSTEIGNKDEDANHAVTNQKKQSRDSDVLLFQ” the “soluble on expression in E. coli” value was “not soluble”.
In the case of “MNSEIFRIFRKKYSEEIRNPPMNATTLPEALKLMQYIGDAIGTIRDPQELFRTVTDKLRLLFAFDSAVIITIDRERREASVFFEMLRFELPEQLRHQTRSIAGTWLEGHLDDRTVTVASIARDIPSFGADGAPLLWTLHELGMRQIVLSPLRSGGRVIGFLSFVSAEEKLWSDGDKSLLSGVSSSIAIAVSNALAYEELRQRE”, the “soluble on expression in E. coli” value is reported as “not soluble”.
With “MEFDKLYGPSNVENRLVQVKATTAEAIHFNRQIQPIIENRCVVCHGCYDAPCQLKMESRAGIERGANKAMVYNGERLLTANISASLTKLTELKRDNLEPLRQQGYFPVLNERQQTEQANTQSSLFYQMLQLKKQHPLPSEPILNESFDVALDRSQQCPTIEEFEQYKDKYPLGGMPYALPALSTTEHDQLTDWIARGAIMPDSVPPNAKEQQMINRWEKLLNGSSAKEQLIARYLFEHLYLANLYFDKAQSSYFKLVRSSSPSGEKVAVITTRRPFDSPYADGSTDAIVDKPQVYYRLIKHNDTIIAKRHMPYPFGESKLARISELFYQPDYPVTTLPDYQLANASNPFKTFQAIPDKARYQFLLDQAQFSIMNFIKGPVCRGQIALNVIEDNFWVFFLSPNNFDHYPSEQFIKANTELLQLPAGTSDKSLSLLYWRQYAKSQQEYVKNKLAYVEGLNLQPNQLNLDLIWSGKGNPNASLTVFRHFDSASVLQGFVGPTPKTAWLISYPLLERIHYLLVAGFDVYGSVSHQLKTRLYMDFLRMEAESNFISFLPKDERKAIHEYWYRETGDDIKDYIFSDGFYQLPETGMNYQSNKHQEELFQLVGQHTKNTNVSQFNLSSLAQSSADKIIANLSQLPNESVALLPQVSYVMVSNGDDNQVYSLINNSAHSNVAHLFSEENRRLPREDNLAILRGVVGTYPNAFFKVEQAQLSEFVSNLNAIKTEQDYRKLKDQFAIRRTNPKFWIFADELHAWYKTNQPKSAGLLDFNRLENRLEHHHHHH” the “soluble on expression in E. coli” value was “not soluble”.
For “MDPKFQRVALSDGHFIPVLGFGTYAPEEVPKSKAMEATKIAIDAGFRHIDSAYFYKNEKEVGLAIRSKIADGTVKREDIFYTSKLWCTFHRPELVRPSLEDSLKNLQLDYVDLYIIHFPTALKPGVEIIPTDEHGKAIFDTVDICATWEAMEKCKDAGLAKSIGVSNFNRRQLEMILNKPGLKYKPVCNQVECHPYLNQGKLLEFCKSKGIVLVAYSALGSHREPEWVDQSAPVLLEDPLIGALAKKHQQTPALIALRYQLQRGIVVLAKSFTEKRIKENIQVFEFQLPSEDMKVIDSLNRNFRYVTADFAIGHPNYPFSDEY”, the “soluble on expression in E. coli” value was “soluble”.
In the case of “MESVSCSAAAVRTGDMESQRDLSLVPERLQRREQERQLEVERRKQKRQNQEVEKENSHFFVATFARERAAVEELLERAESVERLEEAASRLQGLQKLINDSVFFLAAYDLRQGQEALARLQAALAERRRGLQPKKRFAFKTRGKDAASSTKVDAAPGIPPAVESIQDSPLPKKAEGDLGPSWVCGFSNLESQVLEKRASELHQRDVLLTELSNCTVRLYGNPNTLRLTKAHSCKLLCGPVSTSVFLEDCSDCVLAVACQQLRIHSTKDTRIFLQVTSRAIVEDCSGIQFAPYTWSYPEIDKDFESSGLDRSKNNWNDVDDFNWLARDMASPNWSILPEEERNIQWD”, the “soluble on expression in E. coli” value is reported as “soluble”.
With “MSKTHLTEQKFSDFALHPKVVEALEKKGFHNCTPIQALALPLTLAGRDVAGQAQTGTGKTMAFLTSTFHYLLSHPAIADRKVNQPRALIMAPTRELAVQIHADAEPLAEATGLKLGLAYGGDGYDKQLKVLESGVDILIGTTGRLIDYAKQNHINLGAIQVVVLDEADRMYDLGFIKDIRWLFRRMPPANQRLNMLFSATLSYRVRELAFEQMNNAEYIEVEPEQKTGHRIKEELFYPSNEEKMRLLQTLIEEEWPDRAIIFANTKHRCEEIWGHLAADGHRVGLLTGDVAQKKRLRILDEFTRGDLDILVATDVAARGLHIPAVTHVFNYDLPDDCEDYVHRIGRTGRAGASGHSISLACEEYALNLPAIETYIGHSIPVSKYNPDALMTDLPKPLRLTRPRTGNGPRRTGAPRNRRRSG” the “soluble on expression in E. coli” value was “soluble”.
For “MSLNDQIKIRKATKEDWEKIYQLYNSLSDEDLYLRFFHLYRITEEDAKKIASNEDHVTFLAEVDGKVVGEASLHKDGEFSLVVHRNYRTLGIGTLLVKTLIEEAKKSGLSTVKFYTLPENTPMIKIGRKLGFKMRFYEDEVYGEMRLTERELNVNLATFSAPEGHHHHHH”, the “soluble on expression in E. coli” value was “soluble”.
For “MGRMNVSMMRYLEGDHFRVLIAVEMGMKNHEVVPLALVSAIAGIHRGGVARTLNDLCKHSLVAFERSKKFDGYRLTIRGYDYLALRALCSREVVGSVGNQIGIGKESDVYVGGDPELNDLCLKFHRLGRTSFRKIKEKRDYHKKRKSASWLYLSRLAAAKEFAFLKALQERGFPVPKAVDVCRHLVVMQLVVGQTLCNVTHVEDAGALYDRLMALIVKMARHGVIHGDFNEFNLIMLEDERIVMIDFPQMVSIDHPNAEYYFDRDVTCVRTFFKRKFDYESEDWPKFDEVERKGNMDVLLEASGFTKKMALDLNKAYDEGDFLAHCEQELRNRQEEDLGEDEDDSDDSKSMEDIQEEPEDLEKDHEELQAQENTVKQQKIVLSQTTRFTDWLSDATNQLEAVDLDALKSEEGYKDIELPPEDFKRPADSENDDENDEDEEEGEEEDADGHVAVEEQVAKVVKKKRVPSGARSVASSAATFTAEDVKRRLALDRKRNKEKIRLKVKGKQSAVGRNRKDNKDVIAEYAGWI”, the “soluble on expression in E. coli” value was “not soluble”.
With “MTNFRPCFLIPCYNHGKTIPAVVESLMSYGYPMIIVDDGSENETKRILEEVTQHNESITLITLAENQGKGGAVIAGIEKAYQQSYSHAIQIDADGQHDLEALPKLIAESQEHPTALISGQPIYDESVPKSRLYGRYATHIWVWIETLSFTIKDSMCGFRSYPIGPTINVLERAVLGRRMDFDTEIMVRMYWNETDIRFINTRVIYPEDGISHFDALWDNVKISWMHTKLFFGMLPRIPSLLKRKPVQEDHWSSHAERGTILGIQFLLWIYSTFGRKVFSLLLKPVMAYYYLRGGSVKDASDDFIQQVNAYARIKGIQLPEKLTTYRHLVSFGETMLDKLAAWRGDFSDKNLTVHGIEHYQTLAQREKGIVLLGSHLGNLELCRALSRRHTHLKINALVFTEHAERFNTVMKTVNPQSEVNVIQVSKIGPDTAILLQQKIDDGEWIVIVGDRTSVTKENRVIWADFLGKPAPFPQGPFMLASILKQPVYLMFGLRDDTQKDPLFDVYLEPFSEQIILPRGKREEALQEVVQNYAQRLEHFTLKAPSQWYNFFNFWQLTGKKDDNLEHHHHHH” the “soluble on expression in E. coli” value was “soluble”.
